The values that follow come from the supplement of paper PMC5998384.

Data set [1] concerns HeLa Kyoto. Description: solubility in G1/S (NP-40 vs SDS abundance) (log2 ratio); higher = more soluble. Conditions: cell cycle stage: G1/S.
The test system of data set [2] is HeLa Kyoto. Description: melting temperature (median over replicates), in situ; higher = more thermally stable.
The subject of data set [3] is HeLa Kyoto. Description: solubility change mitosis vs G1/S (difference of NP-40 vs SDS log2 ratios) (log2 ratio difference); higher = more soluble in mitosis.
The subject of data set [4] is HeLa Kyoto. Put plainly: thermal stability score vs G1/S (z-score of summed log2 fold changes over temperatures); higher = more thermally stable than in G1/S.
Setting [5] is: cell cycle stage: early G1 (4.5 h after nocodazole release).
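Throughout, for melting temperature (median over replicates), in situ: HeLa Kyoto cells synchronized by double thymidine or nocodazole block, proteins quantified by TMT10plex mass spectrometry, three independent biological replicates.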
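Throughout, for solubility change mitosis vs G1/S (difference of NP-40 vs SDS log2 ratios): synchronized HeLa Kyoto cells (double thymidine block for G1/S, nocodazole release for mitosis), protein amounts in NP-40 versus SDS lysates quantified by mass spectrometry, three biological replicates.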
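Throughout, for solubility in G1/S (NP-40 vs SDS abundance): HeLa Kyoto cells arrested at G1/S by double thymidine block, proteins quantified by TMT10plex mass spectrometry in mild NP-40 versus SDS extracts, three biological replicates.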
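Throughout, for thermal stability score vs G1/S (z-score of summed log2 fold changes over temperatures): synchronized HeLa Kyoto cells, proteins quantified by TMT10plex mass spectrometry, three biological replicates, mitosis taken 0.5 h after nocodazole release, G1/S directly after double thymidine block.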

With “MFISLWEFFYGHFFRFWMKWLLRQMTGKCELQRIFDTYVGAQRTHRIENSLTYSKNKVLQKATHVVQSEVDKYVDDIMKEKNINPEKDASFKICMKMCLLQITGYKQLYLDVESVRKRPYDSDNLQHEELLMKLWNLLMPTKKLNARISKQWAEIGFQGDDPKTDFRGMGILGLINLVYFSENYTSEAHQILSRSNHPKLGYSYAIVGINLTEMAYSLLKSEALKFHLYNLVPGIPTMEHFHQFYCYLVYEFDKFWFEEEPESIMYFNLYREKFHEKIKGLLLDCNVALTLKV [ELMOD2]”, in the data set with HeLa Kyoto [1], the “solubility in G1/S (log2)” value is -0.348. Moreover, the results for the melting temperature in the data set on HeLa Kyoto [2] (cell cycle stage: G1/S) and in the data set with HeLa Kyoto [2] (cell cycle stage: mitosis) were 51.5 °C and 51.3 °C, respectively. In addition, the “solubility change mitosis (log2)” value with HeLa Kyoto [3] was -0.25. Besides, the thermal stability score is -0.373 in the data set with HeLa Kyoto [4] (setting [5]) and -0.0202 in the data set on HeLa Kyoto [4] (cell cycle stage: mitosis).
In the case of “MFKNTFQSGFLSILYSIGSKPLQIWDKKVRNGHIKRITDNDIQSLVLEIEGTNVSTTYITCPADPKKTLGIKLPFLVMIIKNLKKYFTFEVQVLDDKNVRRRFRASNYQSTTRVKPFICTMPMRLDDGWNQIQFNLLDFTRRAYGTNYIETLRVQIHANCRIRRVYFSDRLYSEDELPAEFKLYLPVQNKAKQ [CFAP20]”, in the data set on HeLa Kyoto [1], the “solubility in G1/S (log2)” value was -0.154. Further, the values for the melting temperature in the data set on HeLa Kyoto [2] (cell cycle stage: G1/S) and in the data set with HeLa Kyoto [2] (cell cycle stage: mitosis) were 50.9 °C and 51 °C, respectively. Besides, the “solubility change mitosis (log2)” value with HeLa Kyoto [3] is -0.00426. In addition, the thermal stability score was -0.133 with HeLa Kyoto [4] (setting [5]) and 0.199 in the data set with HeLa Kyoto [4] (cell cycle stage: mitosis).
For the sequence “MFLLPLPAAGRVVVRRLAVRRFGSRSLSTADMTKGLVLGIYSKEKEDDVPQFTSAGENFDKLLAGKLRETLNISGPPLKAGKTRTFYGLHQDFPSVVLVGLGKKAAGIDEQENWHEGKENIRAAVAAGCRQIQDLELSSVEVDPCGDAQAAAEGAVLGLYEYDDLKQKKKMAVSAKLYGSGDQEAWQKGVLFASGQNLARQLMETPANEMTPTRFAEIIEKNLKSASSKTEVHIRPKSWIEEQAMGSFLSVAKGSDEPPVFLEIHYKGSPNANEPPLVFVGKGITFDSGGISIKASANMDLMRADMGGAATICSAIVSAAKLNLPINIIGLAPLCENMPSGKANKPGDVVRAKNGKTIQVDNTDAEGRLILADALCYAHTFNPKVILNAATLTGAMDVALGSGATGVFTNSSWLWNKLFEASIETGDRVWRMPLFEHYTRQVVDCQLADVNNIGKYRSAGACTAAAFLKEFVTHPKWAHLDIAGVMTNKDEVPYLRKGMTGRPTRTLIEFLLRFSQDNA [LAP3]”, the “solubility in G1/S (log2)” value in the data set with HeLa Kyoto [1] came out at 0.187. Also, the melting temperature in the data set on HeLa Kyoto [2] (cell cycle stage: G1/S) turned out to be 53.8 °C; with HeLa Kyoto [2] (cell cycle stage: mitosis) it was 52.6 °C. Besides, the “solubility change mitosis (log2)” value with HeLa Kyoto [3] was -0.0176. The thermal stability score with HeLa Kyoto [4] (setting [5]) was -5.49; with HeLa Kyoto [4] (cell cycle stage: mitosis) it was -3.93.
As for “MFLYNLTLQRATGISFAIHGNFSGTKQQEIVVSRGKILELLRPDPNTGKVHTLLTVEVFGVIRSLMAFRLTGGTKDYIVVGSDSGRIVILEYQPSKNMFEKIHQETFGKSGCRRIVPGQFLAVDPKGRAVMISAIEKQKLVYILNRDAAARLTISSPLEAHKANTLVYHVVGVDVGFENPMFACLEMDYEEADNDPTGEAAANTQQTLTFYELDLGLNHVVRKYSEPLEEHGNFLITVPGGSDGPSGVLICSENYITYKNFGDQPDIRCPIPRRRNDLDDPERGMIFVCSATHKTKSMFFFLAQTEQGDIFKITLETDEDMVTEIRLKYFDTVPVAAAMCVLKTGFLFVASEFGNHYLYQIAHLGDDDEEPEFSSAMPLEEGDTFFFQPRPLKNLVLVDELDSLSPILFCQIADLANEDTPQLYVACGRGPRSSLRVLRHGLEVSEMAVSELPGNPNAVWTVRRHIEDEFDAYIIVSFVNATLVLSIGETVEEVTDSGFLGTTPTLSCSLLGDDALVQVYPDGIRHIRADKRVNEWKTPGKKTIVKCAVNQRQVVIALTGGELVYFEMDPSGQLNEYTERKEMSADVVCMSLANVPPGEQRSRFLAVGLVDNTVRIISLDPSDCLQPLSMQALPAQPESLCIVEMGGTEKQDELGERGSIGFLYLNIGLQNGVLLRTVLDPVTGDLSDTRTRYLGSRPVKLFRVRMQGQEAVLAMSSRSWLSYSYQSRFHLTPLSYETLEFASGFASEQCPEGIVAISTNTLRILALEKLGAVFNQVAFPLQYTPRKFVIHPESNNLIIIETDHNAYTEATKAQRKQQMAEEMVEAAGEDERELAAEMAAAFLNENLPESIFGAPKAGNGQWASVIRVMNPIQGNTLDLVQLEQNEAAFSVAVCRFSNTGEDWYVLVGVAKDLILNPRSVAGGFVYTYKLVNNGEKLEFLHKTPVEEVPAAIAPFQGRVLIGVGKLLRVYDLGKKKLLRKCENKHIANYISGIQTIGHRVIVSDVQESFIWVRYKRNENQLIIFADDTYPRWVTTASLLDYDTVAGADKFGNICVVRLPPNTNDEVDEDPTGNKALWDRGLLNGASQKAEVIMNYHVGETVLSLQKTTLIPGGSESLVYTTLSGGIGILVPFTSHEDHDFFQHVEMHLRSEHPPLCGRDHLSFRSYYFPVKNVIDGDLCEQFNSMEPNKQKNVSEELDRTPPEVSKKLEDIRTRYAF [SF3B3]”, the “solubility in G1/S (log2)” value with HeLa Kyoto [1] was -0.389. The melting temperature in the data set with HeLa Kyoto [2] (cell cycle stage: G1/S) amounted to 52.4 °C; with HeLa Kyoto [2] (cell cycle stage: mitosis), 51.6 °C. The “solubility change mitosis (log2)” value in the data set on HeLa Kyoto [3] turned out to be 0.0933. For the same sequence, the values for the thermal stability score in the data set with HeLa Kyoto [4] (setting [5]) and in the data set with HeLa Kyoto [4] (cell cycle stage: mitosis) were -1 and -1.81, respectively.
For “MFPFGPHSPGGDGSAGAGAEEPTPHEGQAAATGPPSPLHPGADATHPPPPARSPRRPGAPSLSPAPRSGELGLPGAPESSTASAPGEPSPPSPPCRRPGPDCRAKSRGRHGLGAGLGGPGARLFGWLKERSLGRGLFVDPARDNFRTMTSLYGSIHPADSVYLSTRTHGAVFNLEYSPDGSVLTVACEQTEVLLFDPISSKHIKTLSEAHEDCVNNIRFLDNRLFATCSDDTTIALWDLRKLNTKVCTLHGHTSWVKNIEYDTNTRLLVTSGFDGNVIIWDTNRYTEDGCPHKKFFHTRFLMRMRLTPDCSKMLISTSSGYLLILHDLDLTKSLEVGSYPILRARRTTSSSDLTTSSSSSGPRVSGSPCHHSDSNSSEKHMSRASQREGVSPRNSLEVVTPEVLGESDHGNCITSLQLHPKGWATLLRCSSNSDDEECTCVYEFQEGAPVRPVSPRCSLRLTHYIEEANVGRGYIKELCFSPDGRMISSPHGYGIRLLGFDKQCSELVDCLPKEASPLRVIRSLYSHNDVVLTTKFSPTHCQIASGCLSGRVSLYQPKF [DCAF10]”, the “solubility in G1/S (log2)” value in the data set with HeLa Kyoto [1] was -0.0366. Further, the melting temperature is 53.7 °C in the data set with HeLa Kyoto [2] (cell cycle stage: G1/S) and 51.2 °C in the data set with HeLa Kyoto [2] (cell cycle stage: mitosis). In the data set on HeLa Kyoto [3], the “solubility change mitosis (log2)” value was -0.0652. Besides, the results for the thermal stability score with HeLa Kyoto [4] (setting [5]) and in the data set on HeLa Kyoto [4] (cell cycle stage: mitosis) were -2.74 and -3.62, respectively.
In the case of “MFRFMRDVEPEDPMFLMDPFAIHRQHMSRMLSGGFGYSPFLSITDGNMPGTRPASRRMQQAGAVSPFGMLGMSGGFMDMFGMMNDMIGNMEHMTAGGNCQTFSSSTVISYSNTGDGAPKVYQETSEMRSAPGGIRETRRTVRDSDSGLEQMSIGHHIRDRAHILQRSRNHRTGDQEERQDYINLDESEAAAFDDEWRRETSRFRQQRPLEFRRLESSGAGGRRAEGPPRLAIQGPEDSPSRQSRRYDW [MLF2]”, in the data set on HeLa Kyoto [1], the “solubility in G1/S (log2)” value was determined as 0.236. Further, in the data set with HeLa Kyoto [2] (cell cycle stage: G1/S), the melting temperature is 46.2 °C. Also, in the data set with HeLa Kyoto [3], the “solubility change mitosis (log2)” value is -0.0421. Further, the values for the thermal stability score in the data set on HeLa Kyoto [4] (setting [5]) and in the data set on HeLa Kyoto [4] (cell cycle stage: mitosis) were 1.43 and 5.61, respectively.
